Test results published in PMC9315659.

Experiments:
WT LysRS(ΔN65) [1] = target: T1, WT LysRS(ΔN65) (human, UniProt Q15046 66-597); test: fluorescence anisotropy; 1 mM Mg2+; settings: protein: recombinant, tags: His, chain copies: 2
S207D LysRS(ΔN65) [2] = target: T2, S207D LysRS(ΔN65) (human, UniProt Q15046 66-597, S207D); test: fluorescence anisotropy; 1 mM Mg2+; settings: protein: recombinant, tags: His, chain copies: 2
WT LysRS(ΔN65) [3] = target: T1, WT LysRS(ΔN65); test: fluorescence anisotropy; 1 mM Mg2+; FA: 20 mM Tris-HCl pH 8, 15 mM NaCl, 35 mM KCl, 1 mM MgCl2, 20 nM RNA (30 nM per supplement), temperature not stated; XL-SHAPE: 20 mM HEPES pH 7.5, 60 mM NaCl; settings: protein: recombinant; tags: His; chain copies: 2; label: 3' fluorescein (FTSC); tRNA fold
S207D LysRS(ΔN65) [4] = target: T2, S207D LysRS(ΔN65); test: as above; settings: protein: recombinant; tags: His; chain copies: 2; label: 3' fluorescein (FTSC); tRNA fold
[5] = label: 3' fluorescein (FTSC) on RNA, 21-nt DNA annealed to folded RNA, 1.5x DNA
[6] = label: 3' fluorescein (FTSC) on RNA, 24-nt DNA annealed, extends into TLE stem, 1.5x DNA
[7] = label: 3' fluorescein (FTSC) on RNA, 18-nt DNA annealed to PBS of folded RNA, 1.5x DNA
[8] = label: 3' fluorescein (FTSC) in FA, folded domain with TLE hairpin
[9] = label: 3' fluorescein (FTSC) on RNA, 29-nt DNA annealed, extends into TLE stem, 1.5x DNA

T1 sequence (Q15046 66-597, stated change not applied): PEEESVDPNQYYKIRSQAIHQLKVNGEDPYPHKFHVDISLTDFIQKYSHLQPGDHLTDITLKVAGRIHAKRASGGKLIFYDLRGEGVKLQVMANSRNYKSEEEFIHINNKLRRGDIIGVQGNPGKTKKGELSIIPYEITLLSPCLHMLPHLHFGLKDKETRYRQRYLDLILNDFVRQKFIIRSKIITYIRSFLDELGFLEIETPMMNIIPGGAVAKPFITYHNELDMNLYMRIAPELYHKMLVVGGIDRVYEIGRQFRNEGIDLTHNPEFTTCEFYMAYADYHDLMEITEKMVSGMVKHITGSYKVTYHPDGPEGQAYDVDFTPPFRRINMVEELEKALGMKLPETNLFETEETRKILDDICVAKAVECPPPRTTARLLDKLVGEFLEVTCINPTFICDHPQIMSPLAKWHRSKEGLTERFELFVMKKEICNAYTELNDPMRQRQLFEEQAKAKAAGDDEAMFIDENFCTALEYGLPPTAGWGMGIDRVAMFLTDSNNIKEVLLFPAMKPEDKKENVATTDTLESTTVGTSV
T2 sequence (Q15046 66-597 S207D): as the sequence (Q15046 66-597, stated change not applied) above, with S142D counted along it

B1: PBS/TLE105:antiPBS18+3 (mixed)
RNA: GGGCUCUGGUAACUAGAGAUCCCUCAGACCCUUUUAGUCAGUGUGGAAAAUCUCUAGCAGUGGCGCCCGAACAGGGACUUGAAAGCGAAAGUAAAGCCAGAGCCC
DNA: GTCCCTGTTCGGGCGCCACTG
WT LysRS(ΔN65) [1]; [5]
  Kd: 0.488 ± 0.171 µM
S207D LysRS(ΔN65) [2]; [5]
  Kd: 0.305 ± 0.075 µM

B2: PBS/TLE105:antiPBS18+6 (mixed)
RNA: GGGCUCUGGUAACUAGAGAUCCCUCAGACCCUUUUAGUCAGUGUGGAAAAUCUCUAGCAGUGGCGCCCGAACAGGGACUUGAAAGCGAAAGUAAAGCCAGAGCCC
DNA: GTCCCTGTTCGGGCGCCACTGCTA
WT LysRS(ΔN65) [1]; [6]
  Kd: 0.865 ± 0.379 µM
S207D LysRS(ΔN65) [2]; [6]
  Kd: 0.59 ± 0.182 µM

B3: PBS/TLE105:antiPBS18 (mixed)
RNA: GGGCUCUGGUAACUAGAGAUCCCUCAGACCCUUUUAGUCAGUGUGGAAAAUCUCUAGCAGUGGCGCCCGAACAGGGACUUGAAAGCGAAAGUAAAGCCAGAGCCC
DNA: GTCCCTGTTCGGGCGCCA
WT LysRS(ΔN65) [1]; [7]
  Kd: 0.24 ± 0.095 µM
S207D LysRS(ΔN65) [2]; [7]
  Kd: 0.417 ± 0.09 µM

B4: PBS/TLE105 (structured_RNA)
RNA: GGGCUCUGGUAACUAGAGAUCCCUCAGACCCUUUUAGUCAGUGUGGAAAAUCUCUAGCAGUGGCGCCCGAACAGGGACUUGAAAGCGAAAGUAAAGCCAGAGCCC
WT LysRS(ΔN65) [1]; [8]
  Kd: 0.33 ± 0.115 µM
S207D LysRS(ΔN65) [2]; [8]
  Kd: 0.315 ± 0.13 µM

B5: PBS/TLE105:antiPBS18+11 (mixed)
RNA: GGGCUCUGGUAACUAGAGAUCCCUCAGACCCUUUUAGUCAGUGUGGAAAAUCUCUAGCAGUGGCGCCCGAACAGGGACUUGAAAGCGAAAGUAAAGCCAGAGCCC
DNA: GTCCCTGTTCGGGCGCCACTGCTAGAGAT
WT LysRS(ΔN65) [1]; [9]
  Kd: 1.01 ± 0.639 µM
S207D LysRS(ΔN65) [2]; [9]
  Kd: 0.949 ± 0.148 µM

B6: tRNALys3 (structured_RNA)
RNA: GCCCGGAUAGCUCAGUCGGUAGAGCAUCAGACUUUUAAUCUGAGGGUCCAGGGUUCAAGUCCCUGUUCGGGCGCCA
modifications: unmodified transcript
WT LysRS(ΔN65) [3]
  Kd: 0.407 ± 0.033 µM
S207D LysRS(ΔN65) [4]
  Kd: 0.47 ± 0.19 µM
